B1: 423C10E1 (antibody, V domains shown)
VH: DVQLVESGGGLVQPGGSRKLSCVTSGFTFSSFGMHWVRQAPEKGLEWVAFISGGGSPIFYADSVKGRFTVSRDNPKNTLFLQMTGLRSEDTAMYFCARFYFGNSFAYWGQGTLVTVSA
VL: DIVMTQSPSSLTVTAGEKVTMNCRSSQSLFNSGNQKNYLTWYQQKPGQSPKLLIYWASTRESGVPVRFTGSGSGTDFTLTISSVQAEDLAVYYCQTSFNYPLTFGPGTKLELK
notes: mouse hybridoma mAb
B2: 420H7E6 (antibody, V domains shown)
VH: B1 VH with V37I
VL: B1 VL with T5A, S49P, S97G, N99S
notes: mouse hybridoma mAb
B3: 393C2C5 (antibody, V domains shown)
VH: DVQLVESGGGLVQPGGSRKLSCAASGFTFSSFGMHWVRQAPEKGLEWVAYISSGSSPIYYADTVKGRFTISRDNPKNTLFLQMTSLRSEDTAMYFCATFYYGNSFAYWGQGTLVTVSA
VL: DIVMTQSPSSLTVTAGEKVTMSCKSSQTLLNSGNQKNYLTWYQQKSGQPPKLLIYWASTRESGVPDRFTGSGSGTDFTLTISSVQAEDLAVYYCQNAYSYPVTFGSGTKVELK
notes: mouse hybridoma mAb
B4: 370E2B12C3 (antibody, V domains shown)
VH: QVQLKESGPGLVAPSQSLSITCTVSGFSLTTYGVHWVRQPPGKGLEWLGVIWAGGSTNYNSALMSRVSINKDNSKSQVFIKMNSLQADDTALYYCARAAYYGNGLDYWGQGTTLTVSS
VL: B3 VL with S46P, R60G, Y93F, S99F, V102F, S106G, V110L, L112I
notes: mouse hybridoma mAb
B5: 405G8F11 (antibody, V domains shown)
VH: B3 VH with A23V, A24T, T84S, T98R
VL: B3 VL with S22N, T28S, S46L, I54M, Y93F, N96S, Y98F, V102L, S106A, V110L
notes: mouse hybridoma mAb
B6: 418B8B10 (antibody, V domains shown)
VH: B3 VH with A61T, T98R, A106D, Y107H
VL: DIVMTQSPSSLTVTAGEKVSMSCKSSQSLFNRGNQKSYLTWYQQRPGQPPKLLIYWASTRESGVPDRFTGSGSGTDFTLTISSVQAEDLAVYYCQNNYIYPLTFGAGTKLELK
notes: mouse hybridoma mAb
B7: 419B5G9 (antibody, V domains shown)
VH: B3 VH with S31T, S53G, S56T, P57T, Y59F, L86V, F95Y, T98R, Q110P, A118T
VL: B3 VL with T28S, S46P, L52M, V102L, S106A, V110L
notes: mouse hybridoma mAb
B8: 422F4B6 (antibody, V domains shown)
VH: B3 VH with T28S, T69I, T98R, F99I
VL: B3 VL with S46P, V102L, V110L
notes: mouse hybridoma mAb
B9: 410A9A9 (antibody, V domains shown)
VH: B3 VH
VL: B3 VL
notes: mouse hybridoma mAb
B10: 413B1C9 (antibody, V domains shown)
VH: B3 VH with T98R, A106D, Y107H
VL: B6 VL with A15T, R45K
notes: mouse hybridoma mAb
B11: 420H3H9 (antibody, V domains shown)
VH: B3 VH with P57T, D62H, T63S, R87G, F95Y, T98R
VL: B3 VL with M21L, T28S, S46P, L52M, V91D, S99T, V102L, S106A, K109R, V110L
notes: mouse hybridoma mAb
B12: 412B6E4 (antibody, V domains shown)
VH: B3 VH with M34V, P57T, D62H, T63S, R87G, M93T, F95Y, T98R
VL: B3 VL with T28S, S46P, L52M, S99T, V102L, S106A, K109R, V110L
notes: mouse hybridoma mAb
B13: 414A5F7 (antibody, V domains shown)
VH: B3 VH with T98R, F99I
VL: B3 VL with T20A, S46P, I54L, S99Y, V102L, V110L
notes: mouse hybridoma mAb
B14: 416F12F3 (antibody, V domains shown)
VH: B3 VH with P57T, D62H, T63S, R87G, F95Y, T98R
VL: B3 VL with M21L, T28S, S46P, L52M, S99T, V102L, S106A, K109R, V110L
notes: mouse hybridoma mAb
B15: 423B2B5 (antibody, V domains shown)
VH: B3 VH with A61S, T84S, T98R, F99I, A106D, Y107H
VL: B3 VL with S22N, T28S, S46P, A97D, V102L, S106A, V110L
notes: mouse hybridoma mAb
B16: 429H6C5 (antibody, V domains shown)
VH: B3 VH with G44E, P57T, D62H, Q82R, R87G, F95Y, A97V, T98R, A106V, Y107N
VL: B6 VL with V13A, S20T, F30L, R32S, S37N, R45K, L52M, T69A, N97A, K109R
notes: mouse hybridoma mAb
B17: 407H12E6 (antibody, V domains shown)
VH: B3 VH with F29V, M93I, T98R, A106D, Y107H
VL: DIVMTQSPSSLTVTTGEKVTMSCKSSQSLLNSGNQKNYLTWYQQKPGQSPKLLIYWASTRESGVPDRFTGSGSGTDFTLTISSVQTEDLAVYFCQNNYFFPLTFGAGTKLELK
notes: mouse hybridoma mAb
B18: 430A11H9 (antibody, V domains shown)
VH: DVKLVESGGGLVKPGGSLKLSCAASGFTFSSYTMSWVRQTPEKRLEWVATISSGGSYTYYPDSVKGRFTISRDNAKNTLYLQMSSLKSEDTAMYYCTRDPGYFAYWGQGTLVTVSA
VL: DIQMTQSPASLSASVGETVTITCRASENIYSYLAWYQQKQGKSPQLLVYNAKTLAEGVPSRFSGSGSGTQFSLKINSLQPEDFGSYYCQHHYGTPYTFGGGTKLEIK
notes: mouse hybridoma mAb
B19: humanized 207F8G5-VH1.1 + VL1.1 (antibody, human IgG1, kappa, V domains shown)
VH: QVQLVQSGAEVKKPGASVKVSCKASGFTFTSYNIHWVKQAPGQGLEWMGYISPGNGGSNYNLKFKDRVTMTSDTSISTAYMELSRLRSDDTAVYFCATGRGFAYWGQGTLVTVSS
VL: DIVMTQSPDSLAVSPGERATMSCKSSQSLFNSGNQKNYLIWYQQKPGQPPKLLIYRASTRDSGVPDRFSGSGSGTDFTLTISSLQAEDVAVYYCQNDYSYPLTFGGGTKLEIKR
notes: humanized, human IgG1/kappa constant regions
B20: humanized 246B5F2-VH1.1 + VL1 (antibody, human IgG1, kappa, V domains shown)
VH: EVQLLESGGGLVQPGGSLRLSCAASEFTFSNYAMSWVRQAPGKRLEWVATISSGRSSTYYPDSVKGRFTISRDNSKNTLYLQMNSLRAEDTAVYYCAGLGRGNAMEYWGQGTLVTVSS
VL: B19 VL with P15L, M21I, S22N, F30L, I40T, R56W, D61E, D97A, L102F
notes: as for B19
B21: humanized 232C5E3-VL1.1 + VH1 (antibody, human IgG1, kappa, V domains shown)
VH: QVQLVQSGAEVKKPGASVKVSCKASGYTFTSHNIHWVRQAPGQRLEWMGYIYPGNGGTNYNQKFKARVTITRDTSASTAYMELSSLRSEDTAVYYCARDYYGNSFAYWGQGTLVTVSS
VL: B19 VL with P15L, F30L, I40T, R56W, D61E, D97G, S99R, Y100F, L102F, G106Q
notes: as for B19
B22: humanized 207F8G5-VH1.7 + VL1 (antibody, human IgG1, kappa, V domains shown)
VH: B19 VH with M70L, F95Y
VL: B19 VL with P15L, M21I, S22N
notes: as for B19
B23: humanized 246B5F2-VH1 + VL1 (antibody, human IgG1, kappa, V domains shown)
VH: B20 VH with R44G, A49S, G98K
VL: B19 VL with P15L, M21I, S22N, F30L, I40T, R56W, D61E, D97A, L102F
notes: as for B19
B24: humanized 232C5E3-VL1.1 + VH1.1 (antibody, human IgG1, kappa, V domains shown)
VH: B21 VH with M48I, V68A, R72A, Y95F
VL: B19 VL with P15L, F30L, I40T, R56W, D61E, D97G, S99R, Y100F, L102F, G106Q
notes: as for B19
B25: humanized 207F8G5-VH1.3 + VL1.1 (antibody, human IgG1, kappa, V domains shown)
VH: B19 VH with K38R, M48I, V68A
VL: B19 VL
notes: as for B19
B26: humanized 237D2A4-VH1.2 + VL1 (antibody, human IgG1, kappa, V domains shown)
VH: QVQLQESGPGLVKPSETLSLTCTVSGFSLTSYGVSWIRQPPGKGLEWIGVIWGDGSTNYHSTLISRVTISKDTSKNQVFLKLSSVTAADTAVYYCAKAGRGNALDYWGQGTLVTVSS
VL: B19 VL with P15L, M21I, S22N, F30L, I40T, R56W, D61E, Y100F
notes: as for B19
B27: humanized 246B5F2-VH1.1 + VL1.1 (antibody, human IgG1, kappa, V domains shown)
VH: B20 VH
VL: B19 VL with P15L, M21I, F30L, I40T, R56W, D61E, S69T, D97A, L102F
notes: as for B19
B28: humanized 232C5E3-VL1.1 + VH1.2 (antibody, human IgG1, kappa, V domains shown)
VH: B21 VH with V37I, R38K, R72A, Y95F
VL: B19 VL with P15L, F30L, I40T, R56W, D61E, D97G, S99R, Y100F, L102F, G106Q
notes: as for B19

Numbering of substitutions follows the chain as printed.

What is called EC50 is the concentration giving half of the maximal effect. Higher therefore signals a less potent agent.

The target of one assay is T1, human Claudin18.2 (human).
T1 construct: also called CLDN18.2
Briefly: cell ELISA, Claudin18.2-expressing HEK293T cells. An outline of the steps:
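Claudin18.2-expressing HEK293T stable cells (1.5×10⁶ cells/ml in 5% skim milk/PBS blocking buffer) were incubated 1 h at room temperature in plates pre-blocked overnight at 4° C. EC₅₀ was derived by four-parameter curve fit.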
Molecule B1 had an EC50 of 2.46 nM. Same read-out and setting: in the case of B2 it was 2.94 nM; in that of B3, 4.45 nM.

B4: it took 0.522 nM to reach a half-maximal effect (EC50). Same read-out and setting: next, B5: approximately 91.2 nM; B6: 3.17 nM; B7: 22.5 nM. Still for that read-out and setting: in the case of B8 it was 2.53 nM; in that of B9, 6.21 nM; in that of B10, 24.6 nM. With B11, a half-maximal effect (EC50) was put at 20.7 nM. This EC50 and that of the molecule before are within 1.5-fold of each other. On the same count and under the same terms, next, B12: 33.1 nM; B13: 15.5 nM; B14: 14.7 nM. Regarding B15, a half-maximal effect (EC50) was put at 12.7 nM. On the same count and under the same terms, in the case of B16 it was 13.2 nM; in that of B17, 2.39 nM. In turn, B18 had an EC50 of approximately 1.7 nM.

A further assay concerns the target T1, human Claudin18.2. The assay can be described thus: FACS, Claudin18.2-HEK293 cells. On the procedure: The binding of chimeric antibodies to Claudin18.2 expressed on HEK293 cells was determine by FACS analysis. Briefly, HEK293 cells expressing human Claudin18.2 as prepared in the foregoing Example were harvested and incubated with anti-Claudin18.2 mAbs at 4° C. for 40 min, followed by fluorophore (iFluor 647)-labeled goat […] IgG (H+L) secondary antibodies at 4° C. for 0.5 hour. The samples were then analyzed by flow cytometry.
After initial screening of cell binding with transfected supernatants, the binding pattern of chimeric and up to 3 humanized antibodies on Claudin18.2 expressed on HEK293 cells were plotted with antibody in 3× serial dilutions, starting concentration of 45 μg/ml, following the protocol described in Example 3.
On the technique in general: In flow cytometry, cells or beads pass a laser one at a time.
Turning to B19, a half-maximal effect (EC50) was put at 0.168 µg/mL and the Span stood at 14000. The matching figures for B20: 0.104 µg/mL and 10900. The matching figures for B21: 0.304 µg/mL and 58000.

As to B22, the midpoint of the response, the EC50, lay at 0.145 µg/mL and the Span turned out to be 13800.

On to B23, for which the response was half-maximal at 0.16 µg/mL (EC50) and the Span came to 14200.

For the molecule B24, a half-maximal response (EC50) required 0.224 µg/mL and the Span turned out to be 54900.

For B25, the EC50 amounted to 0.143 µg/mL and the Span turned out to be 13800. The matching figures for B26: 0.261 µg/mL and 15700.

For B27, the concentration for a half-maximal effect (EC50) is 0.283 µg/mL and the Span is 14700. Take B28: the EC50 is 0.212 µg/mL and the Span was 57900.
